Reference: paper PMC4067180

Experiments:
[1] = biological target: tektin A (S. purpuratus (endogenous in sperm flagella)); assay: co-sedimentation; Ribbons extracted with 0.5% Sarkosyl and urea (1-3 M; 1.75 M for the stoichiometry) in 10TEAD; the insoluble tektin filaments analysed by SDS-PAGE densitometry (Serva Blue) and immunoblotting
[2] = biological target: tektin B (S. purpuratus (endogenous in sperm flagella)); assay: as above

Substance	stoichiometry N [1]	stoichiometry N [2]
tektin B (natural protein)	1	–
tektin C (natural protein)	1	1
